This note sets out measurements from doi:10.1101/2025.06.12.659326.

The target in this assay is dynein light intermediate chain 2 (LIC2). The assay is described as follows: anti-HA IP of LIC2-HA, GFP blot. The settings on record: reference: GFP-WT OCLN; sites S490.

For the substance “occludin (OCLN) (from UniProt Q16625) GFP-S490A”, the other: reduction vs WT came out at 25%.

The substance “occludin (OCLN) (from UniProt Q16625) GFP-S490D” returned an other: reduction vs WT of 25%.
